Data: the supplement of paper PMC10567573

B1: ZNF649 (parent)
chain: LVAHQRYHTGKTPFVCPECGQPCS
B2: SMARCE1 (parent)
chain: YHNSPAYLAYINAKSRAEAALEEE

Variants of: B1
Assay: protein stability index of a GFP-peptide fusion (GPS, HEK-293T) (PSI 1-6); higher = more stable
Details: c terminus: a fixed tail appended
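Note: lentivirally expressed fusions sorted by FACS into six bins by GFP to DsRed ratio, PSI derived from sequencing read proportions per bin multiplied by bin number.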

| Variant | protein stability index |
| --- | --- |
| LVAHQRYHTGKTPFVCPECGQPCV | 3.13 |
| LVAHQRYHTGKTPFVCPECGQPCR | 2.68 |
| LVAHQRYHTGKTPFVCPECGQPCM | 2.67 |
| LVAHQRYHTGKTPFVCPECGQPCT | 3.36 |
| LVAHQRYHTGKTPFVCPECGQPCN | 2.97 |
| LVAHQRYHTGKTPFVCPECGQPCL | 2.82 |
| LVAHQRYHTGKTPFVCPECGQPCY | 2.62 |
| LVAHQRYHTGKTPFVCPECGQPCQ | 3.12 |
| LVAHQRYHTGKTPFVCPECGQPCW | 3.08 |
| LVAHQRYHTGKTPFVCPECGQPCP | 3.57 |

Variants of: B2
Assay: as above
Details: c terminus: a fixed tail appended

| Variant | protein stability index |
| --- | --- |
| YLNSPAYLAYINAKSRAEAALEEE | 2.09 |
| YMNSPAYLAYINAKSRAEAALEEE | 1.96 |
| YQNSPAYLAYINAKSRAEAALEEE | 1.7 |
| YSNSPAYLAYINAKSRAEAALEEE | 2.5 |
| YGNSPAYLAYINAKSRAEAALEEE | 2.65 |
| YENSPAYLAYINAKSRAEAALEEE | 4.87 |
| YDNSPAYLAYINAKSRAEAALEEE | 4.99 |
| YNNSPAYLAYINAKSRAEAALEEE | 3.77 |
| YFNSPAYLAYINAKSRAEAALEEE | 2.79 |
| YKNSPAYLAYINAKSRAEAALEEE | 5.07 |
| YVNSPAYLAYINAKSRAEAALEEE | 2.84 |
| YRNSPAYLAYINAKSRAEAALEEE | 4.83 |
| YANSPAYLAYINAKSRAEAALEEE | 2.37 |
| YWNSPAYLAYINAKSRAEAALEEE | 2.66 |
| YYNSPAYLAYINAKSRAEAALEEE | 4.42 |
| YTNSPAYLAYINAKSRAEAALEEE | 1.7 |
| YINSPAYLAYINAKSRAEAALEEE | 2.2 |
| YCNSPAYLAYINAKSRAEAALEEE | 2.12 |
| YPNSPAYLAYINAKSRAEAALEEE | 1.84 |
| AHNSPAYLAYINAKSRAEAALEEE | 5.18 |
| HHNSPAYLAYINAKSRAEAALEEE | 4.6 |

| Variant | protein stability index |
| --- | --- |
| SHNSPAYLAYINAKSRAEAALEEE | 4.85 |
| DHNSPAYLAYINAKSRAEAALEEE | 5.28 |
| KHNSPAYLAYINAKSRAEAALEEE | 4.96 |
| QHNSPAYLAYINAKSRAEAALEEE | 5.29 |
| GHNSPAYLAYINAKSRAEAALEEE | 4.65 |
| LHNSPAYLAYINAKSRAEAALEEE | 4.97 |
| MHNSPAYLAYINAKSRAEAALEEE | 5.08 |
| VHNSPAYLAYINAKSRAEAALEEE | 4.95 |
| EHNSPAYLAYINAKSRAEAALEEE | 5.26 |
| RHNSPAYLAYINAKSRAEAALEEE | 4.86 |
| NHNSPAYLAYINAKSRAEAALEEE | 4.85 |
| THNSPAYLAYINAKSRAEAALEEE | 5.26 |
| CHNSPAYLAYINAKSRAEAALEEE | 4.74 |
| PHNSPAYLAYINAKSRAEAALEEE | 5.16 |
| WHNSPAYLAYINAKSRAEAALEEE | 4.52 |
| FHNSPAYLAYINAKSRAEAALEEE | 2.02 |
| IHNSPAYLAYINAKSRAEAALEEE | 4.78 |
| YHNSGAYLAYINAKSRAEAALEEE | 3.04 |
| YHNSAAYLAYINAKSRAEAALEEE | 2.76 |
| YHNSFAYLAYINAKSRAEAALEEE | 3.01 |
| YHNSDAYLAYINAKSRAEAALEEE | 2.15 |

| Variant | protein stability index |
| --- | --- |
| YHNSEAYLAYINAKSRAEAALEEE | 1.82 |
| YHNSCAYLAYINAKSRAEAALEEE | 3.56 |
| YHNSIAYLAYINAKSRAEAALEEE | 2.05 |
| YHNSHAYLAYINAKSRAEAALEEE | 3.81 |
| YHNQPAYLAYINAKSRAEAALEEE | 3.3 |
| YHNEPAYLAYINAKSRAEAALEEE | 2.89 |
| YHNYPAYLAYINAKSRAEAALEEE | 2.09 |
| YHNDPAYLAYINAKSRAEAALEEE | 3.31 |
| YHNLPAYLAYINAKSRAEAALEEE | 2.35 |
| YHNAPAYLAYINAKSRAEAALEEE | 3.12 |
| YHNRPAYLAYINAKSRAEAALEEE | 2.19 |
| YHNWPAYLAYINAKSRAEAALEEE | 2.41 |
| YHNFPAYLAYINAKSRAEAALEEE | 2.04 |
| YHNKPAYLAYINAKSRAEAALEEE | 1.77 |
| YHNCPAYLAYINAKSRAEAALEEE | 1.56 |
| YHNVPAYLAYINAKSRAEAALEEE | 2.44 |
| YHNTPAYLAYINAKSRAEAALEEE | 2.6 |
| YHNNPAYLAYINAKSRAEAALEEE | 2.23 |
| YHNGPAYLAYINAKSRAEAALEEE | 2.45 |
| YHNIPAYLAYINAKSRAEAALEEE | 2 |
| YHNPPAYLAYINAKSRAEAALEEE | 1.91 |

| Variant | protein stability index |
| --- | --- |
| YHNHPAYLAYINAKSRAEAALEEE | 1.91 |
| YHNMPAYLAYINAKSRAEAALEEE | 3.39 |
| YHPSPAYLAYINAKSRAEAALEEE | 1.55 |
| YHWSPAYLAYINAKSRAEAALEEE | 1.89 |
| YHFSPAYLAYINAKSRAEAALEEE | 1.81 |
| YHMSPAYLAYINAKSRAEAALEEE | 2.06 |
| YHRSPAYLAYINAKSRAEAALEEE | 2.26 |
| YHHSPAYLAYINAKSRAEAALEEE | 1.69 |
| YHISPAYLAYINAKSRAEAALEEE | 2.08 |
| YHCSPAYLAYINAKSRAEAALEEE | 1.34 |
| YHVSPAYLAYINAKSRAEAALEEE | 2.03 |
| YHASPAYLAYINAKSRAEAALEEE | 2.05 |
| YHDSPAYLAYINAKSRAEAALEEE | 1.89 |
| YHYSPAYLAYINAKSRAEAALEEE | 2.87 |
| YHGSPAYLAYINAKSRAEAALEEE | 2.28 |
| YHQSPAYLAYINAKSRAEAALEEE | 1.57 |
| YHKSPAYLAYINAKSRAEAALEEE | 2.89 |
| YHESPAYLAYINAKSRAEAALEEE | 2.22 |
| YHTSPAYLAYINAKSRAEAALEEE | 2.19 |
| YHLSPAYLAYINAKSRAEAALEEE | 1.95 |
| YHSSPAYLAYINAKSRAEAALEEE | 1.81 |
